Ends that are not written are not given here.

The record followed here is article doi:10.1101/2021.08.26.457770 (bioRxiv, 2021).

The assay has as its target T1, SspB protein (ClpX adaptor) (Escherichia coli, UniProt P0AFZ3 1-165).
T1 sequence: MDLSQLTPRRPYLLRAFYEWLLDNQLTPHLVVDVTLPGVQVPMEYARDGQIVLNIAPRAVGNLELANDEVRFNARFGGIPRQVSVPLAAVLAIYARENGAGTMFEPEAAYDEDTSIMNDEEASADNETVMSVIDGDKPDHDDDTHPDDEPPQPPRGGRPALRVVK
Kind of assay: MST.

For orientation: Kd means the free concentration of one partner at which half of the binding sites on the other are occupied at equilibrium, for simple one-to-one binding. A high value points to weaker binding. eGFP-AANDENYALAA (not fully specified) [eGFP-AANDENYALAA] gave a Kd of 80 nM.

As to eGFP-AANDENYADAS (not fully specified) [eGFP-AANDENYADAS], binding was characterised by a dissociation constant (Kd) of 330 nM.

Consider eGFP-AANDENYSENY (not fully specified) [eGFP-AANDENYSENY], for which the Kd came to 100 nM.

As to eGFP-AANDENYSENYADAS (not fully specified) [eGFP-AANDENYSENYADAS], the Kd was found to be 300 nM. Against the preceding molecule, the Kd is about 3-fold higher.
